Results from patent CN106565845A.

Key:
[1] = target: 重组人uPAR蛋白 (recombinant human uPAR protein, uPAR-ECD) (human) (UniProt Q03405); experiment: ELISA, plate coated with uPAR-ECD (2 ng/μl), antibody at 0.125 μg/ml, goat anti-human IgG-HRP
[2] = target: human uPAR on SW480 cells (人结肠癌细胞) (human) (UniProt Q03405); experiment: flow cytometry on SW480 cells, antibody at 5 μg/ml, FITC goat anti-human IgG
[3] = target: 重组人uPAR蛋白 (recombinant human uPAR protein, uPAR-ECD) (human) (UniProt Q03405); experiment: ELISA, plate coated with uPAR-ECD (2 ng/μl), antibody at 0.0625 μg/ml, goat anti-human IgG-HRP

OD450 [1]: 1.86 OD450
平均荧光强度 (MFI) [2]: 3.17
阳性率 (percent positive cells) [2]: 99.2%
OD450 [3]: 1.42 OD450
B1: H5L5抗体 (humanized anti-uPAR antibody H5L5) (antibody, human IgG1, kappa, V domains shown)
VH: EVQLVQSGAEVKKPGATVKISCKASGYTFSDFYIHWVRQAPGKGLEWMGWIFHGSDNTEYNEKFRGRVTITADTSTDTGYLELSSLRSEDTAVYYCARWGPHWYFDVWGQGTLVSVSS
VL: MIQMTQSPSSVSASVGDRVTITCRASQDVSYMAWYQQKPGKAPKPWIFEISTLQSGVPSRFSGSGSGTDYSLTINSLQPEDFATYYCQQWNYPFTFGGGTKVEIKR
